Measurements published in patent US20190177411.

Key:
[1] = molecular target: Flag-tagged wild type (WT) PDK1 (not specifically T346-phosphorylated: from normoxic PC3 cells, or dephosphorylated before the kinase assay)
[2] = molecular target: purified recombinant His-tagged PDK4 (Abcam), Q16654
[3] = molecular target: purified recombinant His-tagged PDK2 (Abcam), Q15119
[4] = molecular target: purified recombinant His-tagged PDK1 (Abcam)
[5] = molecular target: Flag-tagged T346A PDK1 mutant
[6] = molecular target: purified recombinant His-tagged PDK3 (Abcam), Q15120
purified recombinant His-tagged PDK3 (Abcam), Q15120, sequence (Q15120 whole entry, looked up): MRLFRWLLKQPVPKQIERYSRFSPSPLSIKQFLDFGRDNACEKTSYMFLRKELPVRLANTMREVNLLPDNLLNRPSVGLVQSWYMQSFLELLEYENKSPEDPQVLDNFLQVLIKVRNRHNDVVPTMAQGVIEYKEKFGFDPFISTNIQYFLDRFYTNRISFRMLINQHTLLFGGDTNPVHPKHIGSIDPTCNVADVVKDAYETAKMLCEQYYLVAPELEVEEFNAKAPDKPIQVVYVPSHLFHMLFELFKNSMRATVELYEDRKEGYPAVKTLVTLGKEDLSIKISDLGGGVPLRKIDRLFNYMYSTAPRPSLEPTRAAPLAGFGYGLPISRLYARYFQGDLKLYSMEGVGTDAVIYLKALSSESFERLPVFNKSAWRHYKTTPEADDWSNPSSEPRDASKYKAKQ

purified recombinant His-tagged PDK1 (Abcam), sequence (chain, as listed by the source): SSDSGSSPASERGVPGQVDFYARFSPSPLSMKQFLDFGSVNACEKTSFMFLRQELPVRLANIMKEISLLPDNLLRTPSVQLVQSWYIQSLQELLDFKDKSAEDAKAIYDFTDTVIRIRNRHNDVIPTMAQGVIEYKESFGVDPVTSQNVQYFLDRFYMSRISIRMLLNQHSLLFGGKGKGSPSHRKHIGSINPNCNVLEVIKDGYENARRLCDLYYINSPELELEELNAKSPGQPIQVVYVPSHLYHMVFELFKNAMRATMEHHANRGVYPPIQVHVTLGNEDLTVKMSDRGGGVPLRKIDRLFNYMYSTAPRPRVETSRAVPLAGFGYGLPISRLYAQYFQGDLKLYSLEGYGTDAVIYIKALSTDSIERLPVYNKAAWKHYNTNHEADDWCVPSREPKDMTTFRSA
Flag-tagged wild type (WT) PDK1 (not specifically T346-phosphorylated: from normoxic PC3 cells, or dephosphorylated before the kinase assay), sequence (chain, as listed by the source): as above
purified recombinant His-tagged PDK4 (Abcam), Q16654, sequence (Q16654 10-411): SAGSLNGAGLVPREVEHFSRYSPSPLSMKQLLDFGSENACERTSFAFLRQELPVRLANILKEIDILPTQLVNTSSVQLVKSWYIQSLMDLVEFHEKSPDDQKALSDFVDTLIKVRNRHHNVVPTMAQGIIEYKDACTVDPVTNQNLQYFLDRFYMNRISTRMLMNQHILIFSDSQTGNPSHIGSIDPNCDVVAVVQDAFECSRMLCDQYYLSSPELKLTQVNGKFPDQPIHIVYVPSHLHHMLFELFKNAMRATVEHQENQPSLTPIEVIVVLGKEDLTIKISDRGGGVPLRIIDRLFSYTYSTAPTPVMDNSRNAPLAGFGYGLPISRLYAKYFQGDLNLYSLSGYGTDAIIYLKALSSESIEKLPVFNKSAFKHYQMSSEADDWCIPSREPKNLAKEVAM
Flag-tagged T346A PDK1 mutant, sequence (chain, as listed by the source T346A): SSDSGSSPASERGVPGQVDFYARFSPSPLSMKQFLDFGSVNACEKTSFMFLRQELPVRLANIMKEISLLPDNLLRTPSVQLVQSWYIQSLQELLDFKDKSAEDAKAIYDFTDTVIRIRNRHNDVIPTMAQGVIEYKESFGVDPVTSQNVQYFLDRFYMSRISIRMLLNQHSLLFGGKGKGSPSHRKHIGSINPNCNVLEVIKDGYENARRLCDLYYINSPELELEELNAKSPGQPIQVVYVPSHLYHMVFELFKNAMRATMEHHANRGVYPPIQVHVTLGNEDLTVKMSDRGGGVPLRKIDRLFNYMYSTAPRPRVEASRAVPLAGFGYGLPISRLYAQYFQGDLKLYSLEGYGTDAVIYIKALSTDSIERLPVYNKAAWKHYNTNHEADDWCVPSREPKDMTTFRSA

B1: kinase active Akt2 (SignalChem) (protein)
chain: MNEVSVIKEGWLHKRGEYIKTWRPRYFLLKSDGSFIGYKERPEAPDQTLPPLNNFSVAECQLMKTERPRPNTFVIRCLQWTTVIERTFHVDSPDEREEWMRAIQMVANSLKQRAPGEDPMDYKCGSPSDSSTTEEMEVAVSKARAKVTMNDFDYLKLLGKGTFGKVILVREKATGRYYAMKILRKEVIIAKDEVAHTVTESRVLQNTRHPFLTALKYAFQTHDRLCFVMEYANGGELFFHLSRERVFTEERARFYGAEIVSALEYLHSRDVVYRDIKLENLMLDKDGHIKITDFGLCKEGISDGATMKTFCGTPEYLAPEVLEDNDYGRAVDWWGLGVVMYEMMCGRLPFYNQDHERLFELILMEEIRFPRTLSPEAKSLLAGLLKKDPKQRLGGGPSDAKEVMEHRFFLSINWQDVVQKKLLPPFKPQVTSEVDTRYFDDEFTAQSITITPPDRYDSLGLLELDQRTHFPQFSYSASIRE
phosphorylation of Flag immune complexes in a kinase assay, Western blotting with Akt cons Ab [1]: active Akt2 phosphorylated wild type (WT) PDK1 | phosphorylation in a kinase assay, Western blotting with Akt cons Ab [2]: related PDK2, PDK3 or PDK4 isoforms were unreactive | phosphorylation in a kinase assay, Western blotting with Akt cons Ab [3]: related PDK2, PDK3 or PDK4 isoforms were unreactive | phosphorylation in a kinase assay, Western blotting with Akt cons Ab [4]: active Akt1 or Akt2 readily phosphorylated PDK1 | phosphorylation site by LC-MS/MS of chymotrypsin digests after a kinase assay [4]: Thr346 (T346) was identified ... as the sole phospho-amino acid modified by Akt1 or Akt2, compared to control | phosphorylation of Flag immune complexes in a kinase assay, Western blotting with Akt cons Ab [5]: but not a phosphorylation-defective Thr346→Ala (T346A) PDK1 mutant | phosphorylation in a kinase assay, Western blotting with Akt cons Ab [6]: related PDK2, PDK3 or PDK4 isoforms were unreactive
